Test results from paper PMC5849716.

Target: 14-3-3τ (UniProt P27348)
Experiment: split luciferase kinase inhibitor screen
Conditions: reference: DMSO-treated; sites S127

fold change	other: suppressed fold change	Substance
	1.85	YAP (YAP1) 120-134 (from UniProt P46937) CGK 733 (ATM/ATR), 10 μM 4 h
	3.71	YAP (YAP1) 120-134 (from UniProt P46937) ER 27319 (SYK), 10 μM 4 h
	5.21	YAP (YAP1) 120-134 (from UniProt P46937) Ro 31-8220 (General), 10 μM 4 h
27.9		YAP (YAP1) 120-134 (from UniProt P46937) SU 4312 (VEGFR1/2), 10 μM 4 h

More lines, now with the values behind:

Substance	fold change	other: suppressed fold change
YAP (YAP1) 120-134 (from UniProt P46937) API-2 (PKB), 10 μM 4 h	10.6	
YAP (YAP1) 120-134 (from UniProt P46937) BIO (GSKa/b), 10 μM 4 h	14.4	
YAP (YAP1) 120-134 (from UniProt P46937) GSK650394 (SGK), 10 μM 4 h		1.73
YAP (YAP1) 120-134 (from UniProt P46937) Genistein (EGFR), 10 μM 4 h	6.12	
YAP (YAP1) 120-134 (from UniProt P46937) PD 98059 (MEK), 10 μM 4 h	16.9	
YAP (YAP1) 120-134 (from UniProt P46937) PD 407824 (CHK1), 10 μM 4 h		1.73
YAP (YAP1) 120-134 (from UniProt P46937) Ro 08-2750 (TrkA), 10 μM 4 h		6.51
YAP (YAP1) 120-134 (from UniProt P46937) Ryuvidine (CDK4), 10 μM 4 h	5.88	
